Measurements as given in patent US20200247886A1 (ZLIP, published 2020).
Where a chain is given by its changes, count along the chain named.

Columns and labels:
[1] = target: T1, human CD47 expressed on cells (CD47 expressing CHO cells, Jurkat, HL60, DLD1, Raji) (human, UniProt Q08722 19-292); test: IC50 as grade, SIRPα blocking on Raji cells; legend ++: >1 nM and <20 nM
T1 construct: also called CHO-CD47; IAP

[2] = target: T1, human CD47 expressed on cells (CD47 …); test: flow cytometry on human platelets, donor 2, MFI
[3] = target: T1, human CD47 expressed on cells (CD47 …); test: flow cytometry blocking assay on Raji cells, SIRPα is the blocked ligand, MFI
[4] = target: T1, human CD47 expressed on cells (CD47 …); test: flow cytometry on human red blood cells, donor 2, MFI
[5] = target: T1, human CD47 expressed on cells (CD47 …); test: flow cytometry on human red blood cells, donor 1, MFI
[6] = target: T1, human CD47 expressed on cells (CD47 …); test: flow cytometry on human platelets, donor 1, MFI
[7] = target: T1, human CD47 expressed on cells (CD47 …); test: IC50 as grade, SIRPα blocking on Raji cells (second part of the table); legend ++: >1 nM and <20 nM
[8] = target: T1, human CD47 expressed on cells (CD47 …); test: IC50 as grade, SIRPα blocking on Raji cells; legend +: >20 nM
[9] = target: T2, human CD47-Fc protein (Novoprotein, Cat#CG18) (human, UniProt Q08722 19-139); test: IC50 (nM) as grade, blocking of soluble CD47 binding to SIRPα-expressing CHO cells; legend ++: >1 nM and <10 nM
T2 construct: Bought protein; also called CD47-hFc; hCD47-hFc fusion protein; not shown: human IgG Fc of the bought fusion protein

[10] = target: T1, human CD47 expressed on cells (CD47 …); test: flow cytometry on CD47 expressing CHO cells, MFI (FL-4)
[11] = target: T3, biotin labelled polyhistidine tagged CD47 protein (Novoprotein, Cat#321) (human, UniProt Q08722 19-139, biotin labelled (site not stated)); test: flow cytometry blocking assay: antibody mixed with biotinylated human CD47 protein; blocked ligand SIRPα on cells; binding percentage
T3 construct: Bought protein; also called biotinylated CD47; biotinylated human CD47 protein; not shown: polyhistidine tag

[12] = target: T1, human CD47 expressed on cells (CD47 …); test: EC50 (nM) as grade, binding on Jurkat cells; legend ++: >1 nM and <10 nM
[13] = target: T4, CD47 protein (construct not stated; SPR antigen, CD47 coated ELISA plates) (Homo sapiens (Human), UniProt Q08722 19-139, limits assumed); test: SPR (Biacore T100), affinity (nM) as grade; legend +: >10 nM and <40 nM
T4 construct: also called the antigen

[14] = target: T1, human CD47 expressed on cells (CD47 …); test: flow cytometry on DLD1 cells, IgG, frequency
[15] = target: T5, CHO/mCD47-GFP (mouse, UniProt Q61735); test: flow cytometry on CHO cells expressing mouse CD47-GFP, binding percentage
T5 construct: on the cell surface; also called mouse CD47 expressed on CHO cells; CHO cell expressing mouse CD47
T5 sequence (receptor, looked up): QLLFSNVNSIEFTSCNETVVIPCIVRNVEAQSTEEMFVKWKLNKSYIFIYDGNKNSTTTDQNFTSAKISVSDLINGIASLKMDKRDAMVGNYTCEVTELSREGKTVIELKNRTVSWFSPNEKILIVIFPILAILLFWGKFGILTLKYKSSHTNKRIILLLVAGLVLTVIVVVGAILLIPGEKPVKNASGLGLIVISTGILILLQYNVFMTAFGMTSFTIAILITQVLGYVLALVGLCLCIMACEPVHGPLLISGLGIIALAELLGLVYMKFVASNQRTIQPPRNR

[16] = target: T1, human CD47 expressed on cells (CD47 …); test: EC50 (nM) as grade, binding on CHO-CD47 cells; legend ++++: <0.05 nM
[17] = target: T3, biotin labelled polyhistidine tagged …; test: IC50 (nM) as grade, Fab blocking biotinylated CD47 binding to SIRPα-CHO cells; legend ++: >10 nM and <65 nM
[18] = target: T1, human CD47 expressed on cells (CD47 …); test: EC50 (nM) as grade, flow cytometry, Fab on DLD1 cells; legend +: >60 nM
[19] = target: T1, human CD47 expressed on cells (CD47 …); test: EC50 (nM) as grade, flow cytometry, Fab on HL60 cells; legend +++: <1 nM
[20] = target: T6, His-tagged CD47 (Homo sapiens (Human), UniProt Q08722 19-139, limits assumed); test: IC50 (nM) MFI as grade, blocking His-tagged CD47 binding to SIRPα-CHO cells; legend +++: <2 nM
T6 construct: not shown: His tag

[21] = target: T6, His-tagged CD47; test: IC50 (nM) Frequency as grade, blocking His-tagged CD47 binding to SIRPα-CHO cells; legend +: >2.7 nM
[22] = target: T6, His-tagged CD47; test: flow cytometry blocking assay: His-tagged CD47 with Fab on SIRPα-expressing CHO cells (SIRPα is the blocked ligand), anti-His-APC, MFI
[23] = target: T6, His-tagged CD47; test: flow cytometry blocking assay: His-tagged CD47 with Fab on SIRPα-expressing CHO cells (SIRPα is the blocked ligand), anti-His-APC, frequency
[24] = target: T1, human CD47 expressed on cells (CD47 …); test: EC50 (nM) as grade, flow cytometry, Fab on DLD1 cells; legend ++: >5 nM and <60 nM
[25] = target: T1, human CD47 expressed on cells (CD47 …); test: EC50 (nM) as grade, flow cytometry, Fab on DLD1 cells; legend +++: <5 nM
[26] = target: T3, biotin labelled polyhistidine tagged …; test: IC50 (nM) as grade, Fab blocking biotinylated CD47 binding to SIRPα-CHO cells; legend +: >65 nM

B1: H-ABU 5 (antibody, V domains shown)
VH: QVQLVQSGAEVKKPGASVKVSCKASGYTFTDNYINWVRQAPGQRLEWMGWIYLGSGNTKYNEKFKGRVTITRDTSASTAYMELSSLRSEDTAVYYCARREERGFAVWGQGTLVTVSS
VL: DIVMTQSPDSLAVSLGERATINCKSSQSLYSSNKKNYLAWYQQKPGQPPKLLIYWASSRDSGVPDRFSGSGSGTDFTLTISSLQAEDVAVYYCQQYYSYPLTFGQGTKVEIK
IC50 [1]: 1 to 20 nM

B2: H-ABU 10 (antibody, V domains shown)
VL: DIVMTQSPDSLAVSLGERATINCKSSQSLVSSSQKNYLAWYQQKPGQPPKLLIYWASVRDSGVPDRFSGSGSGTDFTLTISSLQAEDVAVYYCQQYYSYPLTFGQGTKVEIK
VH: B1 VH with V106P
EC50 (read off the curve) [2]: ~0.6 nM
IC50 (read off the curve) [3]: ~1 nM
EC50 (read off the curve) [4]: ~3 nM
EC50 (read off the curve) [5]: ~3 nM
EC50 (read off the curve) [6]: ~0.6 nM
IC50 [7]: 1 to 20 nM

B3: H-ABU 3 (antibody, V domains shown)
VH: B1 VH with N32S, L53T, V106Y
VL: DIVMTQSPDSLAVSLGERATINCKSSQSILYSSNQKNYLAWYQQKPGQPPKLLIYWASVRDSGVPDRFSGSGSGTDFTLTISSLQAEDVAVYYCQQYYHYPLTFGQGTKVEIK
IC50 [8]: > 20 nM

B4: Positive 2 (benchmark analogue antibody) (antibody, V domains shown)
VH: QVQLQQPGAELVKPGASVMMSCKASGYTFTNYNMHWVKQTPGQGLEWIGTIYPGNDDTSYNQKFKDKATLTADKSSSAAYMQLSSLTSEDSAVYYCARGGYRAMDYWGQTSVTVSS
VL: DVLMTQTPLSLPVSLGDQASISCRSSQSIVYSNGNTYLGWYLQKPGQSPKLLIYKVSNRFSGVPDRFSGSGSGTDFTLKISRVEAEDLGVYHCFQGSHVPYTFGGGTKVEIK
notes: also called Pos
IC50 [9]: 1 to 10 nM
EC50 (read off the curve) [10]: ~2 nM
IC50 (read off the curve) [11]: ~8 nM
EC50 [12]: 1 to 10 nM
Affinity by SPR [13]: 10 to 40 nM
EC50 (read off the curve) [14]: ~2 nM
binding result [15]: no binding (tested: about 0.4 ug/ml)
EC50 [16]: < 0.05 nM

B5: ABU11 (Fab) (Fab, V domains shown)
VH: EVQLQQPGAELVRPGSSVKLSCKASGYSFTTYWMHWVKQRPGQGLEWIGNINPSSGDSHYNEKFKSKATLTVDKSSSTAYLQLNSLTSEDSAVYYCARDYYGAYWGHGTLVTVSA
VL: DIQMTQSPASLSASVGETVTITCRASENVYSYLAWYQQKQGKSPQLLVYKANTLAEGVPSRFSGSGSGTQFSLKINSLQPEDFGTYYCQHHYGTPLTFGSGTKLEIK
notes: Phage-derived Fab: murine VL and VH fused to human CL and CH1
IC50 [17]: 10 to 65 nM
EC50 [18]: > 60 nM
EC50 [19]: < 1 nM

B6: ABU40 (Fab) (Fab, V domains shown)
VH: B5 VH with A9T, R13K, S16A, L81M
VL: B5 VL with V29I, K50N, N52K, T85S, S100A, I106L
notes: as for B5
IC50 [20]: < 2 nM
IC50 [21]: > 2.7 nM
IC50 (read off the curve) [22]: ~2 nM
IC50 [17]: 10 to 65 nM
IC50 (read off the curve) [23]: ~3 nM
EC50 [24]: 5 to 60 nM
EC50 [19]: < 1 nM

B7: ABU16 (Fab) (Fab, V domains shown)
VH: RVQLQQSGAELVRPGTSVKVSCKASAYAFTNYLIEWVKKRPGQGLEWIGVINPGSGGTNYNEKFKGKATLTADKSSSTAYMQLSSLTSEDSAVYFCARGDGYGSLFAYWGQGTLVTVSA
VL: RHCFNQSPAIMSASPGEKVTMTCSASSSVSYMHWYQQKSGTSPKRWIYDTSNLASGVPVRFSGSGSGTSYSLTISRMEAEDAATYYCQQWSNYPFTFGSGTKLELK
notes: as for B5
EC50 [25]: < 5 nM
IC50 [26]: > 65 nM
EC50 [19]: < 1 nM

B8: ABU20 (Fab) (Fab, V domains shown)
VH: RGKVQESGPGLVKPSQSLSLTCSVTGYSITSGYYWNWIRQFPGNKLEWMGYINYDGSNNYNPSLKNRISITRDTSKNQFFLKLNSVTTEDTATYYCARGYYYGSSYGYWYFDVWGTGTTVTVSS
VL: DAVVTQESALTTSPGETVTLTCRSSTGAVTTNNYANWVQEKPDHLFTGLIGGTNNRAPGVPARFSGSLIGDKAALTITGAQTEDEAIYFCALWYSNHLVFGGGTKLTVL
notes: as for B5
IC50 [17]: 10 to 65 nM
EC50 [18]: > 60 nM
EC50 [19]: < 1 nM

B9: ABU24 (Fab) (Fab, V domains shown)
VH: EVQLQQPGTELVKPGASVKLSCKASGYTFTSYWMHWVKQRPGQGLEWIGNVVPNNDGTNYNEKFRNKATLTVDKSSSTAYMQLSSLTSEDSAVYYCAVTYFAYWGQGTLVTVSA
VL: B8 VL with T30S, N32S, L98W
notes: as for B5
IC50 [26]: > 65 nM
EC50 [24]: 5 to 60 nM
EC50 [19]: < 1 nM
